Series [1] deals with T1, metallo-beta-lactamase (class B) 5/B/6 (Bacillus cereus) (UniProt P14488).
T1 sequence: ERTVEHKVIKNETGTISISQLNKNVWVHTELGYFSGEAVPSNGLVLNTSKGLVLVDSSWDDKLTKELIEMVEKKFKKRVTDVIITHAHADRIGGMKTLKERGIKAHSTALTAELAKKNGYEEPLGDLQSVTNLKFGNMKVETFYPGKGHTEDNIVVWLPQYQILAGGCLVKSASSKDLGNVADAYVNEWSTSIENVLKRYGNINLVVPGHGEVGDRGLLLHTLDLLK
Briefly: inhibition. The note with it: for IC50: cephalosporin C 4 mM; for IC50 / Ki: MOPS pH 7.0, 30 C; for Ki: noncompetitive.

In series [2] the target is T2, metallo-beta-lactamase (class B) 5/B/6 (Bacillus cereus, UniProt P14488 P14488:30-256).
T2 sequence: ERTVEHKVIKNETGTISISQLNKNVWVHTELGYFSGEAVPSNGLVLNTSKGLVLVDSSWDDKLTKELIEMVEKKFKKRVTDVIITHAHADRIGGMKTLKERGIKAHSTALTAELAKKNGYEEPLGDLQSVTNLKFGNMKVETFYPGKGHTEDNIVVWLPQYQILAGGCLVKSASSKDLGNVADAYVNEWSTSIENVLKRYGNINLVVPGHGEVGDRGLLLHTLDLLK
Briefly: inhibition; single strand control. The note with it: tags: strain 5/B/6; desalted enzyme used for SELEX.

Another series has as its target T3, carboxypeptidase A (Bos taurus, UniProt P00730 P00730:111-419).
T3 sequence: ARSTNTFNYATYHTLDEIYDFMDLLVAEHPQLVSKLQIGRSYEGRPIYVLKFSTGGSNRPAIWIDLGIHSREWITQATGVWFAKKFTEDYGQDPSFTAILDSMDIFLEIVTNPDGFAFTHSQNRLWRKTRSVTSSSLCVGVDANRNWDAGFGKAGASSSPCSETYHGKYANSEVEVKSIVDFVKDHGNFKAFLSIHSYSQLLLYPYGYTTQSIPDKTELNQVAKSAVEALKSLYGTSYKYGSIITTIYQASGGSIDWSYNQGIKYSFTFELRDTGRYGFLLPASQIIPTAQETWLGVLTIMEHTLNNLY
Briefly: inhibition; 10% LiCl, 30 C, hippuryl-L-phenylalanine 1 mM. The note with it: tags: bovine, zinc-dependent. How it is done:
Bovine Carboxypeptidase A Assay. The assay used for the bovine carboxypeptidase A is based on the method developed by Folk and Schirmer (1963). The rate of hydrolysis of hippuryl-L-phenylalanine is determined by monitoring the increase in absorbance at 254 nm (25° C., pH=7.5). The enzyme was dissolved in 10% lithium chloride to a concentration of 1-3 units per mL. Hippuryl-L-phenylalanine (1 mM) was dissolved in 0.05 M Tris HCl, pH=7.5 with 0.5 M sodium chloride. In a 1 cm cuvette, 1.0 mL of substrate was added and incubated in the spectraphotometer at 25° C. for 3-4 minutes to reach temperature equilibrium and establish a blank rate. Fifty μL of diluted enzyme was preincubated for 15 minutes at 25° C. with or without the inhibitor and was then added to record the increase in absorbance at 254 nm.
At 25 times the IC₅₀ value (275 nM) for the metallo-β-lactamase no inhibition of the against B. cereus 569/H/9 β-lactamase I was detected (data not shown) Additionally a bovine carboxypeptidase A (Zn²⁺dependent enzyme) assay was performed to test for Zn²⁺ specificity. […] The enzyme was incubated in the buffer (10% LiC1) for 15 minutes at 30° C. The concentration of the substrate (Hippuryl-L-phenylalanine) is 1 mM.

As a reminder, the IC50 is the point on the concentration scale where inhibition reaches its midpoint. A word on the Ki: it is a dissociation constant, usually derived from enzyme kinetics or from competition with a known ligand. A lower Ki goes with higher affinity. On to “ATGATCCGGTGCTGTATGTTCCTACATGA (double strand) [ds 29-mer]”, for which the half-inhibitory concentration (IC50) in series [1] (no added Zn2+) was found to be 14 nM. The same molecule gave a Ki in series [1] (KI' 9.1 nM, no added Zn2+) of 11 nM.

In series [1] (preliminary, pool after round 8, DNA quantitation approximate), “CGCGAGCTCCGCGCGNNNNNNNNNNNNNNNNNNNNNNNNNNNNNNCGCGCGCATATGGCGC (double strand) [round 8 SELEX pool (30 nt random insert)]” yielded an activity of 25 % inhibition.

On to “ATGTTCCTACATGA (double strand) [ds 14-mer]”, for which the IC50 in series [1] was determined as 11 nM. For the same molecule, the Ki in series [1] (KI' 13 nM) is 13 nM.

Regarding “ATGATCCGGTGCTGT (double strand) [ds 15-mer]”, the IC50 in series [1] came to 21 nM. Also, the Ki in series [1] (KI' 76.5 nM) was determined as 103 nM.

B1: ss 15-mer complementary strand (ssDNA)
DNA: ACAGCACCGGATCAT
With B1, the IC50 in series [2] amounted to 750 nM.

B2: ss 15-mer top strand (ssDNA)
DNA: ATGATCCGGTGCTGT
For the molecule B2, in series [2], the IC50 stood at 150 nM.

B3: ds 14-mer (dsDNA)
DNA 1: ATGTTCCTACATGA
DNA 2: TCATGTAGGAACAT
Consider B3, for which the IC50 with carboxypeptidase A amounted to 100 nM.

The values above are taken from patent publication US20100261777, “Inhibiton of metallo-beta-lactamase by double-stranded dna” (published 2010).
